According to patent publication US8530245B2:

Molecular target: Alexa Fluor-AChR conjugate (acetylcholine receptor purified from Torpedo californica electric organs, labelled with Alexa Fluor 488 or 647) (Torpedo californica) (UniProt P02710)
Assay: flow cytometry, CD19+ B cells stained with Alexa-AChR

Substance | Percent of B cells that were AChR+ (lymph node, mean)
B cells (CD19+ or B220+) from CFA+AChR-immunized C57BL/6 mice with EAMG (spleen, lymph node, peripheral blood) (cells without a defined receptor) | 10.4%
B cells from unimmunized naive C57BL/6 mice (cells without a defined receptor) | 5.6%
